Results taken from publication PMC9482650, “Quantitative fragmentomics allow affinity mapping of interactomes” (Nature Communications, 2022).

Key:
Assay in all cases: holdup assay
Parameters in all cases: key: below the threshold = too weak to quantify, mostly under pKd 3.1 to 4
PDZRN4_1, Q6ZMN7 = target: PDZRN4_1, Q6ZMN7
APBA1_2, Q02410 = target: T1, APBA1_2, Q02410
T1 sequence (Q02410 742-832, limits assumed, looked up): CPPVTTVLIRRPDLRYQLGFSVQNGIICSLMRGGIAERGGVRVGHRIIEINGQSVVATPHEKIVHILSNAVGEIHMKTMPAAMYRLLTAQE

DLG2_3, Q15700 = target: DLG2_3, Q15700
NHERF2_2, Q15599 = target: NHERF2_2, Q15599
Chain of NHERF2_2, Q15599 (Q15599 142-238): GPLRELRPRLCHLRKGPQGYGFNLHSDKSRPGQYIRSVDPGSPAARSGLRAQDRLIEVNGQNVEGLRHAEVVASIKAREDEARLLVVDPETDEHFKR

PARD3B_3, Q8TEW8 = details: plain residues with an end cap or a label only (N-terminal biotin on a linker: (peg)3)
Chain of PARD3B_3, Q8TEW8 (Q8TEW8 490-594): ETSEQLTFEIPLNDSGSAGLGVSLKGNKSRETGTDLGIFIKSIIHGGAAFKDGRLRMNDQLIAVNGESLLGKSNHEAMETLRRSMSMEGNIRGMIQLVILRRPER

PREX1_1, Q8TCU6 = details: plain residues with an end cap or a label only (N-terminal biotin on a linker: (peg)3)
Chain of PREX1_1, Q8TCU6 (Q8TCU6 608-718): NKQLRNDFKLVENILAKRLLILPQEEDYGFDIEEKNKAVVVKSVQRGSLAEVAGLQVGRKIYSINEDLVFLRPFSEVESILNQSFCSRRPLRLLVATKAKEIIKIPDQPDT

USH1C_1, Q9Y6N9 = target: T2, USH1C_1, Q9Y6N9; details: plain residues with an end cap or a label only (N-terminal biotin on a linker: (peg)3)
T2 sequence (Q9Y6N9 82-179, limits assumed, looked up): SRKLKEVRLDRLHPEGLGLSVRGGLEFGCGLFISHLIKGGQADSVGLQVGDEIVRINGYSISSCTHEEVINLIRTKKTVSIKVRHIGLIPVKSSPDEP

MAGI3_3, Q5TCQ9 = details: plain residues with an end cap or a label only (N-terminal biotin on a linker: (peg)3)
Chain of MAGI3_3, Q5TCQ9 (Q5TCQ9 572-655): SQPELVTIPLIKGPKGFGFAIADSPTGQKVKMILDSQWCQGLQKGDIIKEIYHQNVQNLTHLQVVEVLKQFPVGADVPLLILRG

SYNPO2L, Q9H987 = target: T3, SYNPO2L, Q9H987; details: plain residues with an end cap or a label only (N-terminal biotin on a linker: (peg)3)
T3 sequence (Q9H987 1-98, limits assumed, looked up): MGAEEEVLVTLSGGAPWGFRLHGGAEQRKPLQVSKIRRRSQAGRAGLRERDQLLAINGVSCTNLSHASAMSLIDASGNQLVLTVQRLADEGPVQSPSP

SHANK2, Q9UPX8 = target: T4, SHANK2, Q9UPX8; details: plain residues with an end cap or a label only (N-terminal biotin on a linker: (peg)3)
T4 sequence (Q9UPX8 621-730, limits assumed, looked up): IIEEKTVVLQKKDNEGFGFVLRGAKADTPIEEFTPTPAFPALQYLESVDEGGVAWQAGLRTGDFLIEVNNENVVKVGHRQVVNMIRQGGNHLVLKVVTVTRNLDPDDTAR

DLG2_1, Q15700 = details: plain residues with an end cap or a label only (N-terminal biotin on a linker: (peg)3)
PDZRN3_2, Q9UPQ7 = target: T5, PDZRN3_2, Q9UPQ7; details: plain residues with an end cap or a label only (N-terminal biotin on a linker: (peg)3)
T5 sequence (Q9UPQ7 414-513, limits assumed, looked up): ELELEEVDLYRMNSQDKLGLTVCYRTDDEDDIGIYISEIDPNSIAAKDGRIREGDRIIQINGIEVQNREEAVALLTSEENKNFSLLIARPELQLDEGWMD

PARD3B_2, Q8TEW8 = details: plain residues with an end cap or a label only (N-terminal biotin on a linker: (peg)3)
Chain of PARD3B_2, Q8TEW8 (Q8TEW8 376-471): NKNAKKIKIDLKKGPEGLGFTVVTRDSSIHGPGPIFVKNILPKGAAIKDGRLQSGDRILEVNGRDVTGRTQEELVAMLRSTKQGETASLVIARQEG

USH1C_2, Q9Y6N9 = target: T6, USH1C_2, Q9Y6N9; details: plain residues with an end cap or a label only (N-terminal biotin on a linker: (peg)3)
T6 sequence (Q9Y6N9 206-303, limits assumed, looked up): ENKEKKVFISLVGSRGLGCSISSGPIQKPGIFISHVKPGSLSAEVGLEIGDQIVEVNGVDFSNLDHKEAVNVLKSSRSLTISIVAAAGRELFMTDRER

PDLIM4, P50479 = details: plain residues with an end cap or a label only (N-terminal biotin on a linker: (peg)3)
Chain of PDLIM4, P50479 (P50479 1-83): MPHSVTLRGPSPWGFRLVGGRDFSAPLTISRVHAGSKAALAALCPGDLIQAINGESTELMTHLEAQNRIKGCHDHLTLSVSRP

NHERF1_1, O14745 = target: T7, NHERF1_1, O14745; details: plain residues with an end cap or a label only (N-terminal biotin on a linker: (peg)3)
T7 sequence (O14745 9-104, limits assumed, looked up): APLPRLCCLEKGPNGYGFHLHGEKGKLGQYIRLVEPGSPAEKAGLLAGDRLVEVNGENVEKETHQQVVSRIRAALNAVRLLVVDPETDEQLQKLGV

MAGI1_4, Q96QZ7 = details: plain residues with an end cap or a label only (N-terminal biotin on a linker: (peg)3)
Chain of MAGI1_4, Q96QZ7 (Q96QZ7 other isoform, or with tags, fused parts or gaps): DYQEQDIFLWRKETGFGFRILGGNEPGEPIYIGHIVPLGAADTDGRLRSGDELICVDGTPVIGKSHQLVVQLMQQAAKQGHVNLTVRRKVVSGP

PTPN4, P29074 = target: T8, PTPN4, P29074; details: plain residues with an end cap or a label only (N-terminal biotin on a linker: (peg)3)
T8 sequence (P29074 512-599, limits assumed, looked up): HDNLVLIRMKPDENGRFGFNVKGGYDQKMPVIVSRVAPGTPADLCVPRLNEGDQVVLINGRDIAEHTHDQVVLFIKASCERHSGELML

LNX1_4, Q8TBB1 = details: plain residues with an end cap or a label only (N-terminal biotin on a linker: (peg)3)
Chain of LNX1_4, Q8TBB1 (Q8TBB1 631-726): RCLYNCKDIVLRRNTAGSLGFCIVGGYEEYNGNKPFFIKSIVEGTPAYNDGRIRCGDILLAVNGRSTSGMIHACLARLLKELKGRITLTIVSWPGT

PDZD4, Q76G19 = target: T9, PDZD4, Q76G19; details: plain residues with an end cap or a label only (N-terminal biotin on a linker: (peg)3)
T9 sequence (Q76G19 125-224, limits assumed, looked up): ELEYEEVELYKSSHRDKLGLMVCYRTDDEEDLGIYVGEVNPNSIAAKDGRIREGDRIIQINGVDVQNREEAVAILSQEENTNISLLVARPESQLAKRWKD

NHERF1_2, O14745 = target: T10, NHERF1_2, O14745; details: plain residues with an end cap or a label only (N-terminal biotin on a linker: (peg)3)
T10 sequence (O14745 149-244, limits assumed, looked up): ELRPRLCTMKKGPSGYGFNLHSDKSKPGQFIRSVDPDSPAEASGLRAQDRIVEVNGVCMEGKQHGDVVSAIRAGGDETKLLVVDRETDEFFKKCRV

LMO7, Q8WWI1 = details: plain residues with an end cap or a label only (N-terminal biotin on a linker: (peg)3)
Chain of LMO7, Q8WWI1 (Q8WWI1 1037-1138): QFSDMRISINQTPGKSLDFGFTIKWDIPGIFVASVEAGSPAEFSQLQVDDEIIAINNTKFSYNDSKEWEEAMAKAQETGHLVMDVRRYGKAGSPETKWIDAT

PDZD2_3, O15018 = target: T11, PDZD2_3, O15018; details: plain residues with an end cap or a label only (N-terminal biotin on a linker: (peg)3)
T11 sequence (O15018 581-682, limits assumed, looked up): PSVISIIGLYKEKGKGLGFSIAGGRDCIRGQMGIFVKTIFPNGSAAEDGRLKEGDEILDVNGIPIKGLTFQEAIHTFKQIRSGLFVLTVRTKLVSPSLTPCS

NHERF2_1, Q15599 = details: plain residues with an end cap or a label only (N-terminal biotin on a linker: (peg)3)
Chain of NHERF2_1, Q15599 (Q15599 9-91): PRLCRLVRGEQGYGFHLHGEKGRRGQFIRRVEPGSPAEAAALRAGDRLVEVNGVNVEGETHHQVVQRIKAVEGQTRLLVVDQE

PDZD2_5, O15018 = target: T12, PDZD2_5, O15018; details: plain residues with an end cap or a label only (N-terminal biotin on a linker: (peg)3)
T12 sequence (O15018 2617-2716, limits assumed, looked up): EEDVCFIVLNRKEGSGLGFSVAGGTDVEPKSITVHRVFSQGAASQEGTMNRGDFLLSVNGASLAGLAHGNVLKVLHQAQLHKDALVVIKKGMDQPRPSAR

[1] = plain residues with an end cap or a label only (N-terminal biotin on a linker: ado-ado)
[2] = plain residues with an end cap or a label only (N-terminal biotin on a linker: (peg)3)
[3] = modified: phospho on T at position -2 from the C-terminal residue

Chain of PDZRN4_1, Q6ZMN7 (Q6ZMN7 213-318): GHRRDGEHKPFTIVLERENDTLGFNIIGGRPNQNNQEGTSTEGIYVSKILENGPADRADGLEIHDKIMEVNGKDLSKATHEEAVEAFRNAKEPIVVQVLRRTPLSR

## SARSRLSSNL [HCN2, Q9UL51]
PDZRN4_1, Q6ZMN7; [1]
  pKd: 3.53
APBA1_2, Q02410; [1]
  pKd: below the threshold
DLG2_3, Q15700; [1]
  pKd: below the threshold
NHERF2_2, Q15599; [1]
  pKd: 4.44

## EKKTLIGIKL [GOT1L1, Q8NHS2]
PDZRN4_1, Q6ZMN7; [1]
  pKd: below the threshold
APBA1_2, Q02410; [1]
  pKd: below the threshold
DLG2_3, Q15700; [1]
  pKd: below the threshold
NHERF2_2, Q15599; [1]
  pKd: 3.64

## VKPQVSESKL [ACOT8, O14734]
PDZRN4_1, Q6ZMN7; [1]
  pKd: 3.83
APBA1_2, Q02410; [1]
  pKd: below the threshold
DLG2_3, Q15700; [1]
  pKd: 3.74
NHERF2_2, Q15599; [1]
  pKd: 4.56

## CLREWCDAFL [BANF1, O75531]
PDZRN4_1, Q6ZMN7; [1]
  pKd: below the threshold
APBA1_2, Q02410; [1]
  pKd: 3.75
DLG2_3, Q15700; [1]
  pKd: 3.61
NHERF2_2, Q15599; [1]
  pKd: 4.48

## LRSPRTPSEV [OR10G3, Q8NGC4]
PDZRN4_1, Q6ZMN7; [1]
  pKd: below the threshold
APBA1_2, Q02410; [1]
  pKd: 4.1
DLG2_3, Q15700; [1]
  pKd: below the threshold
NHERF2_2, Q15599; [1]
  pKd: below the threshold

## PRAEAEDSFL [PDGFRB, P09619]
PDZRN4_1, Q6ZMN7; [1]
  pKd: 3.69
APBA1_2, Q02410; [1]
  pKd: 3.65
DLG2_3, Q15700; [1]
  pKd: below the threshold
NHERF2_2, Q15599; [1]
  pKd: 5.05

## YNNCLEILRV [DCAF7, P61962]
PDZRN4_1, Q6ZMN7; [1]
  pKd: below the threshold
APBA1_2, Q02410; [1]
  pKd: below the threshold
DLG2_3, Q15700; [1]
  pKd: below the threshold
NHERF2_2, Q15599; [1]
  pKd: below the threshold

## EALLQMESVA [CAVIN3, Q969G5]
PDZRN4_1, Q6ZMN7; [1]
  pKd: below the threshold
APBA1_2, Q02410; [1]
  pKd: 3.5
DLG2_3, Q15700; [1]
  pKd: 3.84
NHERF2_2, Q15599; [1]
  pKd: below the threshold

## PPYRHRNTVV [ERBB4, Q15303]
PDZRN4_1, Q6ZMN7; [1]
  pKd: below the threshold
APBA1_2, Q02410; [1]
  pKd: 3.53
DLG2_3, Q15700; [1]
  pKd: 4.35
NHERF2_2, Q15599; [1]
  pKd: below the threshold

## RRLPGKETMA [GRIK2, Q13002]
PDZRN4_1, Q6ZMN7; [1]
  pKd: below the threshold
APBA1_2, Q02410; [1]
  pKd: below the threshold
DLG2_3, Q15700; [1]
  pKd: 3.8
NHERF2_2, Q15599; [1]
  pKd: below the threshold

## NLNSSEGVPDLLV [SARS-CoV-E, P59637]
PDZRN4_1, Q6ZMN7; [2]
  pKd: below the threshold
PARD3B_3, Q8TEW8
  pKd: below the threshold
PREX1_1, Q8TCU6
  pKd: below the threshold
USH1C_1, Q9Y6N9
  pKd: below the threshold
MAGI3_3, Q5TCQ9
  pKd: 3.85
SYNPO2L, Q9H987
  pKd: below the threshold
SHANK2, Q9UPX8
  pKd: below the threshold
APBA1_2, Q02410; [2]
  pKd: below the threshold
DLG2_1, Q15700
  pKd: below the threshold
PDZRN3_2, Q9UPQ7
  pKd: below the threshold
PARD3B_2, Q8TEW8
  pKd: below the threshold
DLG2_3, Q15700; [2]
  pKd: below the threshold
USH1C_2, Q9Y6N9
  pKd: below the threshold
PDLIM4, P50479
  pKd: below the threshold
NHERF1_1, O14745
  pKd: below the threshold
MAGI1_4, Q96QZ7
  pKd: below the threshold
PTPN4, P29074
  pKd: below the threshold
LNX1_4, Q8TBB1
  pKd: below the threshold
PDZD4, Q76G19
  pKd: below the threshold
NHERF1_2, O14745
  pKd: 3.74
LMO7, Q8WWI1
  pKd: below the threshold
PDZD2_3, O15018
  pKd: below the threshold
NHERF2_2, Q15599; [2]
  pKd: below the threshold
NHERF2_1, Q15599
  pKd: below the threshold
PDZD2_5, O15018
  pKd: below the threshold

## RRRESYSTTV [EVI5, O60447]
PDZRN4_1, Q6ZMN7; [1]
  pKd: 4.23
APBA1_2, Q02410; [1]
  pKd: 3.74
DLG2_3, Q15700; [1]
  pKd: 4.52
NHERF2_2, Q15599; [1]
  pKd: 4.21

## LGRSTPQSEV [DGKH, Q86XP1]
PDZRN4_1, Q6ZMN7; [1]
  pKd: below the threshold
APBA1_2, Q02410; [1]
  pKd: 3.64
DLG2_3, Q15700; [1]
  pKd: below the threshold
NHERF2_2, Q15599; [1]
  pKd: below the threshold

## RRISSLESEV [GRIN2C, Q14957]
PDZRN4_1, Q6ZMN7; [1]
  pKd: 4.17
APBA1_2, Q02410; [1]
  pKd: 3.75
DLG2_3, Q15700; [1]
  pKd: 4.44
NHERF2_2, Q15599; [1]
  pKd: below the threshold

## FNSYSLTGYV [CLDN2, P57739]
PDZRN4_1, Q6ZMN7; [1]
  pKd: 3.49
APBA1_2, Q02410; [1]
  pKd: 4
DLG2_3, Q15700; [1]
  pKd: below the threshold
NHERF2_2, Q15599; [1]
  pKd: below the threshold

## LPAHHNATRL [SLC34A1, Q06495;Q06495-1]
PDZRN4_1, Q6ZMN7; [1]
  pKd: 4.2
APBA1_2, Q02410; [1]
  pKd: 4
DLG2_3, Q15700; [1]
  pKd: below the threshold
NHERF2_2, Q15599; [1]
  pKd: 4.83

## IKAIVDLTGL [TRAF2, Q12933]
PDZRN4_1, Q6ZMN7; [1]
  pKd: below the threshold
APBA1_2, Q02410; [1]
  pKd: below the threshold
DLG2_3, Q15700; [1]
  pKd: below the threshold
NHERF2_2, Q15599; [1]
  pKd: 3.91

## SKPTRRETEV [HPV35-E6_-2P, P27228]
PDZRN4_1, Q6ZMN7; [3]
  pKd: below the threshold
APBA1_2, Q02410; [3]
  pKd: below the threshold
DLG2_3, Q15700; [3]
  pKd: 3.52
NHERF2_2, Q15599; [3]
  pKd: below the threshold

## GSGAVEMESV [AQP6, Q13520]
PDZRN4_1, Q6ZMN7; [1]
  pKd: below the threshold
APBA1_2, Q02410; [1]
  pKd: 3.58
DLG2_3, Q15700; [1]
  pKd: below the threshold
NHERF2_2, Q15599; [1]
  pKd: below the threshold
